Measured values: US20100227805A1 (RAPPAPORT FAMILY INSTITUTE FOR RESEARCH IN THE MEDICAL …, published 2010)

Experiments:
human RANTES (CCL5) = target: T1, human RANTES (CCL5) (human, UniProt P13501 24-91); assay: direct ELISA, chemokine coated at 10 ng/well, fusion at 1 µg/well
T1 construct: Bought recombinant chemokine; also called human CCL5
T1 sequence (looked up): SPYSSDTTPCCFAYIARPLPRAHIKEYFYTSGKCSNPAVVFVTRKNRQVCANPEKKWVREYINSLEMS
Procedure: (§1) The binding specificity of the murine CCR5-IgG soluble receptor to various commercially available human recombinant chemokines (R&D Systems, Minneapolis, N. Mex.) MIP-1α (CCL3), MIP-1β (CCL4) and RANTES as well as the murine recombinant chemokines (R&D Systems, Minneapolis, N. Mex.) MIP-1α (CCL3) and ITAC was determined by direct ELISA as follows: 96-well ELISA plates (Nunc, Roskilde, Denmark) were coated with 10 ng/well of human CCL3, CCL4, CCL5, as well as murine CCL3 or ITAC, and blocked with 1% BSA in PBS. Wells were washed and incubated with 1 μg/well CCR5(EC2)-IgG overnight. Wells were washed and the presence of CCR5(EC2)-IgG was detected with goat anti mouse IgG-HRP antibody (Jackson ImmunoResearch lot no. 58734). Results are shown as O.D. reading at 450 nm.

human MIP-1β (CCL4) = target: T2, human MIP-1β (CCL4) (human, UniProt P13236 24-92); assay: as above
T2 construct: Bought recombinant chemokine; also called human CCL4
T2 sequence (looked up): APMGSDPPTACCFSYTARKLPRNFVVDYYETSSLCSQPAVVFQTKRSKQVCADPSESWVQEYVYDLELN
Procedure: as §1

murine MIP-1β (CCL4) = target: T3, murine MIP-1β (CCL4) (murine, UniProt P14097 24-92); assay: direct ELISA, chemokine coated at 10 ng/well, fusion at 10-1000 ng/ml
T3 construct: Bought recombinant chemokine; also called mCCL4; murine CCL4
T3 sequence (looked up): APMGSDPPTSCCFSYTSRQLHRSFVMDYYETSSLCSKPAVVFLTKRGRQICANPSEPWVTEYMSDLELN
Procedure: (§2) The binding specificity of the different extracellular domains (EC1, EC2, EC3 and N) of the murine CCR5-IgG fusion proteins to various commercially available murine recombinant […] chemokines (R&D Systems, Minneapolis, N. Mex. including MIP-1α (CCL3), (CCL4) and RANTES (CCL5) was determined by direct ELISA as follows: 96-well ELISA plates (Nunc, Roskilde, Denmark) were coated with 10 ng/well of murine CCL3, CCL4 or […] and blocked with 1% BSA in PBS. Wells were washed and incubated with 10 ng/ml, 100 ng/ml or 1000 ng/ml CCR5-IgG (EC1, EC2, EC3, N) at a concentration overnight. Wells were washed and the presence of CCR5-IgG was detected with goat anti mouse IgG-HRP (Jackson ImmunoResearch lot no. 58734). Results are shown as O.D. reading at 450 nm.

murine RANTES (CCL5) = target: T4, murine RANTES (CCL5) (murine, UniProt P30882 24-91); assay: as above
T4 construct: Bought recombinant chemokine; also called mCCL5; murine CCL5
T4 sequence (P30882 24-91 limits assumed): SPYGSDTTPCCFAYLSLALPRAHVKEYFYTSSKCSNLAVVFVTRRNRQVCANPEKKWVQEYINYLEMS
Procedure: as §2

murine MIP-1α (CCL3) = target: T5, murine MIP-1α (CCL3) (murine, UniProt P10855 24-92); assay: as above
T5 construct: Bought recombinant chemokine; also called mCCL3; murine CCL3
T5 sequence (looked up): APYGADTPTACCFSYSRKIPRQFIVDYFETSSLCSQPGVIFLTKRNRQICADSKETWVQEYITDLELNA
Procedure: as §2

Measured: binding result

B1: mCCR5(EC2)-IgG (Fc fusion)
chain: DAAQPARRARRTKLRSQKEGFHYTCSPHFPHTQYHFWKSFQTLKLEVPRDCGCKPCICTVPEVSSVFIFPPKPKDVLTITLTPKVTCVVVDISKDDPEVQFSWFVDDVEVHTAQTQPREEQFNSTFRSVSELPIMHQDCLNGKEFKCRVNSAAFPAPIEKTISKTKGRPKAPQVYTIPPPKEQMAKDKVSLTCMITDFFPEDITVEWQWNGQPAENYKNTQPIMDTDGSYFVYSKLNVQKSNWEAGNTFTCSVLHEGLHNHHTEKSLSHSPGKGPEQKLISEEDLNSAVDHHHHHH
notes: It may include the vector's Ig-kappa leader and tags; also called murine CCR5(EC2)-IgG; CCR5-Ig(E2)
binds: human RANTES (CCL5) | human MIP-1β (CCL4) | murine MIP-1β (CCL4) | murine RANTES (CCL5) | murine MIP-1α (CCL3)
